Data published in patent publication US20190038582A1 (published 2019).
Like-named read-outs stand apart in the source and are kept apart here.

Legend:
[1] = target: T1, TPX2
T1 chain: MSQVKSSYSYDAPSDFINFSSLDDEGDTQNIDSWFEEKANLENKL

[2] = target: T2, dephosphorylated Aurora A kinase (Aurora A^122-403) (human, UniProt O14965 122-403); experiment: ITC
T2 construct: also called AurA; deP Aurora A^122-403
T2 sequence: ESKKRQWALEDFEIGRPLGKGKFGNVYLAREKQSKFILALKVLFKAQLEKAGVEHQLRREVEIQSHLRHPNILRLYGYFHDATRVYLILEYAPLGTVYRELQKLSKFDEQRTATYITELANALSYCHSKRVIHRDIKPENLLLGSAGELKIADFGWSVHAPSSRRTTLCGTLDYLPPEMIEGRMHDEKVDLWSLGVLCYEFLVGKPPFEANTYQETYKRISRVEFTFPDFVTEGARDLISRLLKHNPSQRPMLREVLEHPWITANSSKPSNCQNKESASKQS
Description: Error bars in FIGS. 18D and 18F represent the standard error for the estimate of Kd and are a measure of the goodness of fit of the data. Error bars in FIG. 18C were calculated through jackknifing.
(§1) Titrations were carried out using Nano ITC isothermal titration calorimeter (TA Instruments) and analyzed via the NanoAnalyze software using the independent fit model. Injectant was added in 1 μl volume, every 180 s, with a constant stirring speed at 350 rpm and at 25° C.

[3] = target: T3, dephosphorylated Aurora A kinase (Aurora A^122-403) (UniProt O14965 122-403); experiment: ITC
T3 chain: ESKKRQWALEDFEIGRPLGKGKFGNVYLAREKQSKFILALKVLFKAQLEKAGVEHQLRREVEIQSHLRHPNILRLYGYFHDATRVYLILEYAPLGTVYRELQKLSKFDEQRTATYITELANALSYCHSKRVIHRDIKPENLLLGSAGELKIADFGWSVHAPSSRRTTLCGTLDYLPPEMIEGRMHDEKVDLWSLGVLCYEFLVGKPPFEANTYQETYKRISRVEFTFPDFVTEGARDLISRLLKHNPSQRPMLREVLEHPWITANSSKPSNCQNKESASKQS

[4] = target: T3, dephosphorylated Aurora A kinase …; experiment: ITC
[5] = target: T4, Aurora A kinase in HEK293 cells (human, UniProt O14965 1-403); experiment: immunofluorescence co-localization in HEK293 cells
T4 construct: not on the cell surface; also called Aurora A kinase (endogenous, HEK293)
T4 sequence: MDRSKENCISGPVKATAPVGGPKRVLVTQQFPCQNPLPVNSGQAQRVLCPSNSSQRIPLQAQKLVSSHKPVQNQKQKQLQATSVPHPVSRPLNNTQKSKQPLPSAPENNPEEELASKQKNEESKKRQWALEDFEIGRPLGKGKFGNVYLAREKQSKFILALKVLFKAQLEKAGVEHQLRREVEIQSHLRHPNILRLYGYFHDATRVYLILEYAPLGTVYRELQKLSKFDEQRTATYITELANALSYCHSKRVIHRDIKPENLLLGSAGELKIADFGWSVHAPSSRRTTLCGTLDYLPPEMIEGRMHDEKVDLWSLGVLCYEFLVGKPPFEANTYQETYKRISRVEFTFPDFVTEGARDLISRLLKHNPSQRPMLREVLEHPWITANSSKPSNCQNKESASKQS

[6] = target: T3, dephosphorylated Aurora A kinase …; experiment: ITC
[7] = target: T2, dephosphorylated Aurora A kinase …; experiment: ITC; Aurora A pre-saturated with barasertib
Description: as §1

[8] = target: T3, dephosphorylated Aurora A kinase …; experiment: ITC
[9] = target: T2, dephosphorylated Aurora A kinase …; experiment: told with the kinase assay results (FIG. 9); method of the affinity not named there
[10] = target: T3, dephosphorylated Aurora A kinase …; experiment: ITC

B1: Aurora A T288V mutant (A^122-403 T288V) (protein)
chain: ESKKRQWALEDFEIGRPLGKGKFGNVYLAREKQSKFILALKVLFKAQLEKAGVEHQLRREVEIQSHLRHPNILRLYGYFHDATRVYLILEYAPLGTVYRELQKLSKFDEQRTATYITELANALSYCHSKRVIHRDIKPENLLLGSAGELKIADFGWSVHAPSSRRTVLCGTLDYLPPEMIEGRMHDEKVDLWSLGVLCYEFLVGKPPFEANTYQETYKRISRVEFTFPDFVTEGARDLISRLLKHNPSQRPMLREVLEHPWITANSSKPSNCQNKESASKQS
kinase activity (phosphorylation of AP peptide) [1]: greatly increased its kinase activity

B2: phosphorylated Aurora A kinase (protein)
chain: ESKKRQWALEDFEIGRPLGKGKFGNVYLAREKQSKFILALKVLFKAQLEKAGVEHQLRREVEIQSHLRHPNILRLYGYFHDATRVYLILEYAPLGTVYRELQKLSKFDEQRTATYITELANALSYCHSKRVIHRDIKPENLLLGSAGELKIADFGWSVHAPSSRRTTLCGTLDYLPPEMIEGRMHDEKVDLWSLGVLCYEFLVGKPPFEANTYQETYKRISRVEFTFPDFVTEGARDLISRLLKHNPSQRPMLREVLEHPWITANSSKPSNCQNKESASKQS
kinase activity (phosphorylation of AP peptide) [1]: only slightly increased kinase activity

B3: monobody Mb60 (AuroraA_60) (designed binder)
chain: GSVSSVPTKLEVVAATPTSLLISWDAPAVTVVHYVITYGETGGNSPVQEFTVPGSKSTATISGLKPGVDYTITVYAIDFYWGSYSPISINYRT
notes: FN3-scaffold monobody; also called Mb2 (alternative name herein)
binding result [2]: binds
Kd [3]: 1000 nM

B4: TPX2 (other)
chain: MSQVKSSYSYDAPSDFINFSSLDDEGDTQNIDSWFEEKANLENKL
notes: also called TPX2 polypeptide
Kd [2]: ~5000 nM
Kd [3]: 5400 nM

B5: monobody Mb54 (AuroraA_54) (designed binder)
chain: GSVSSVPTKLEVVAATPTSLLISWDAQTYQMYDYVSYYRITYGETGGNSPVQEFTVPGYYSTATISGLKPGVDYTITVYAEGYYSSYSPISINYRT
notes: FN3-scaffold monobody; also called Mb1
binding result [2]: binds
Kd [3]: 175 nM

B6: sGFP-Mb6 fusion polypeptide (designed binder)
chain: GSVSSVPTKLEVVAATPTSLLISWDAFGHQYEPVYYYRITYGETGGNSPVQEFTVPGYYSTATISGLKPGVDYTITVYAWYVDGSYSSPISINYRT
notes: also called neutral sGFP-Mb6; not shown: supercharged GFP (sGFP)
Kd [4]: 27.4 nM
binding result [5]: binds

B7: monobody Mb44 (AuroraA_44) (designed binder)
chain: GSVSSVPTKLEVVAATPTSLLISWDAPAVTVDFYVITYGETGGYSYPWQEFEVPGSKSTATISGLKPGVDYTITVYADYGQYFYSPISINYRT
notes: FN3-scaffold monobody; also called M44
Kd [6]: 3280 nM
fold weakening of binding affinity (Aurora A pre-saturated with barasertib against Aurora A alone) [7]: 5 fold

B8: monobody Mb2 (aka Mb6) (AuroraA_2) (designed binder)
chain: GSVSSVPTKLEVVAATPTSLLISWDAFGHQYEPVYYYRITYGETGGNSPVQEFTVPGYYSTATISGLKPGVDYTITVYAWYVDGSYSSPISINYRT
notes: also called neutral monobody
Kd [8]: 8.7 nM
binding result [9]: binds

B9: sGFP-Mb54 fusion polypeptide (designed binder)
chain: GSVSSVPTKLEVVAATPTSLLISWDAQTYQMYDYVSYYRITYGETGGNSPVQEFTVPGYYSTATISGLKPGVDYTITVYAEGYYSSYSPISINYRT
notes: also called sGFP-Mb54 (aka Mb1); sGFP-Mb1; not shown: supercharged GFP (sGFP)
binding result [2]: binds
Kd [4]: 121 nM
binding result [5]: binds

B10: monobody Mb51 (AuroraA_51) (designed binder)
chain: GSVSSVPTKLEVVAATPTSLLISWDAKPMSYEPVYYYRITYGETGGNSPVQEFTVPGYYSTATISGLKPGVDYTITVYADSMSSYYYSPISINYRT
notes: FN3-scaffold monobody
Kd [6]: 76.9 nM
fold weakening of binding affinity (Aurora A pre-saturated with barasertib against Aurora A alone) [7]: 2.8 fold

B11: sGFP-Mb60 fusion polypeptide (designed binder)
chain: GSVSSVPTKLEVVAATPTSLLISWDAPAVTVVHYVITYGETGGNSPVQEFTVPGSKSTATISGLKPGVDYTITVYAIDFYWGSYSPISINYRT
notes: also called sGFP-Mb2 (aka Mb60); not shown: supercharged GFP (sGFP)
binding result [2]: binds
Kd [10]: 2500 nM
binding result [5]: binds

B12: monobody Mb56 (AuroraA_56) (designed binder)
chain: GSVSSVPTKLEVVAATPTSLLISWDAMSDWYYWVDYYRITYGETGGNSPVQEFTVPGSYSTATISGLKPGVDYTITVYASDDVWGDYSPISINYRT
notes: FN3-scaffold monobody; also called Mb3
binding result [2]: binds
Kd [6]: 163 nM
